Measured values reported in publication PMC3082182 (The Journal of Cell Biology, 2011).

Target: GST–FL Rngo (Drosophila melanogaster, UniProt Q9VXF9 1-458)
Assay: pull-down

B1: FL MBP-Rpn10 (natural protein)
chain: MVLESTMICFDNSDFQRNGDYFPTRLIVQRDGINLVCLTKLRSNPENNVGLMTLSNTVEVLATLTSDAGRIFSKMHLVQPKGEINLLTGIRIAHLVLKHRQGKNHKMRIVVFVGSPINHEEGDLVKQAKRLKKEKVNVDIVSFGDHGNNNEILTAFINALNGKDGTGSHLVSVPRGSVLSDALLSSPIIQGEDGMGGAGLGGNVFEFGVDPNEDPELALALRVSMEEQRQRQESEQRRANPDGAPPTGGDAGGGGGVSGSGPGNEESAGAENEANTEEAMLQRALALSTETPEDNLPDFANMTEEEQIAFAMQMSMQDAPDDSVTQQAKRPKTDEANAPMDVDEDYSEVIGDPAFLQSVLENLPGVDPQSEAVRDAVGSLNKDKDKKSDGKDSQKK
binding result: binds
